Experimental findings from the DeepSol protein solubility set are described below.

The nature of this data set: soluble on expression in E. coli; label from the status in PepcDB or PDB records.
In the case of “MSLKIAIVGCGAMGSVYAGLLASAGNSLWIVDRWKAHVEAINSRGLRLEGPQRDLTAFAHASTTAPDEPMDLVIIAVKASDVETGAQQTLSMIGPETIVLTIQNGLGSADAVAQVVGVDRLAVGIASGFGASLKGPGHAHHNAMQALRFGAYSSLPYERVVAVARVWESAGFDAKAIRDIAVMQWEKLICNVAYSAPCALTGMTVGEVMNDPCMGPVSQAAATEAWSVARALGIQIDVDDPVAHVRAFGARMPAAKPSALLDHEAGRISEIDVINGAVPTQGNKLGIATPVNSTLTQLVRVKERQFREGHHHHHH”, the “soluble on expression in E. coli” value was “soluble”.
With “MIVLIDGPSGSGKTTFAGFLGEILGMRIVHFDDLYPGWHGLAAGVKIVTALLEGAGGYHRWDWANNVMGPWVEVPERNLIIEGVGSLAPSVVRAARQHGPVLTMLFDGPEQMRRSRALARDPFYEPWWEMWAEQEARHFATVETPDVTRGYP”, the “soluble on expression in E. coli” value was “not soluble”.
On to “LTVGDWLDSIRMGRYRDHFAAGGYSSLGMVLRMNAQDVRALGITLMGHQKKILGSIQTMRAQLTSTQG”, for which the “soluble on expression in E. coli” value was “soluble”.
On to “MSLKTPLKDEVFSFIDLETTGSCPIKHEILEIGAVQVKGGEIINRFETLVKVKSVPDYIAELTGITYEDTLNAPSAHEALQELRLFLGNSVFVAHNANFDYNFLGRYFVEKLHCPLLNLKLCTLDLSKRAILSMRYSLSFLKELLGFGIEVSHRAYADALASYKLFEICLLNLPSYIKTTMDLIDEGHHHHHH”, for which the “soluble on expression in E. coli” value is reported as “not soluble”.
For “MKHTEESLMSTTEKSRKAEEDDEKDMKKRTQFPSSSTSSDPPVGIGGSGALVVNRRRQEGNPVLKYVRNVRYEWGDIGPDFECGPTFGVVYLSFKYHKQHPEYVYTRINGNAENRYRNKVLLGYCNMEEPRHVLRELNMICFREAWTFVVVYTVEEAAEYIELFKTTQKKEITIKKKAIDDGGDSSMSDERRRNREAAIGFLTAARSITKTDADRLLFHFGTLQAISTASETSISACPGVGPIKAKNLHSFLHAIISPNEQD”, the “soluble on expression in E. coli” value is given as “not soluble”.
To “MGSDKIHHHHHHMIPEKRIIRRIQSGGCAIHCQDCSISQLCIPFTLNEHELDQLDNIIERKKPIQKGQTLFKAGDELKSLYAIRSGTIKSYTITEQGDEQITGFHLAGDLVGFDAIGSGHHPSFAQALETSMVCEIPFETLDDLSGKMPNLRQQMMRLMSGEIKGDQDMILLLSKKNAEERLAAFIYNLSRRFAQRGFSPREFRLTMTRGDIGNYLGLTVETISRLLGRFQKSGMLAVKGKYITIENNDALAQLAGHTRNVA” belongs “not soluble”; to “MADKKEKLFSDFSPVSTEQWMEKVTADLKGADFEKKLVWKTNEGFKVKPFYRMEDLEGLKTTDALPGEFPYLRGTKKSNNEWLVRQEIKVECPKEANAKALDILNKGVDSLSFHVKAKELNAEYIETLLNGIQAECVELNFSTCQGHVVELAGLLVAYFQKKDYDVKKLRGSVNYDFFNKMLTRGKEKGDMVQTAKALIEAIQPLPFYRVLNVNAISLNNAGAYISQELGYALAWGNEYMNQLTDAGIPAATVAKKIKFNFGISSNYFLEIAKFRAARMLWANIVASYHPECLRDCDNKGANGECRCAAKMAVHAETSTFNLTLFDAHVNLLRTQTEAMSAALAGVDSMTVVPFDKTYSTPDEFSERLARNQQLLLKEESHFDKVIDPAAGSYYIENLTVSIAKQAWELFLAVEEAGGFYAALKAGTVQAAVNESNKARHKAVAQRREVLLGTNQFPNFNEKAGEKQPIEAKCCCGGDAHTCEKDVDTLVFDRAASEFEALRLETEASGKRPKAFMLTIGNLAMRQARAQYSCNFLACAGYEVIDNLGFETVEAGVEAAMAAKADIVVLCSSDDEYAEYAVPAFKALDGRAMFIVAGAPACMDELKAAGIENFIHVRVNVLDTLKEFNAKLLK”, “not soluble”; to “MAQQQNPYYGTGFYQPSGTYVQPQQMTQQQQQAMQQQTAQAAQAQYAISQGMLPLEQSYIENILRLNKGKQATVVMTYERGSSLGTQSYTGIIEAAGRDHIVISEPQSGKRYLLLMIYLDYVEFPEEITYLPSQQATYTPRP”, “soluble”.
For “AMSTQGLVQLLANAQCHLRTSTNYNGVHTQFNSALNYKNNGTNTIDGSEAWCSSIVDTNQYIVAGCEVPRTFMCVALQGRGDADQWVTSYKIRYSLDNVSWFEYRNGAAVTGVTDRNTVVNHFFDTPIRARSIAIHPLTWNGHISLRCEFYTQPVQSSVTQVGADIYTGDNCALNTGSGKREVVVPVKFQFEFATLPKVALNFDQIDCTDATNQTRIGVQPRNITTKGFDCVFYTWNENKVYSLRADYIATALE”, the “soluble on expression in E. coli” value is “soluble”.
Turning to “MRGSPHHHHHHGSAKNVVLDHDGNLDDFVAMVLLASNTEKVRLIGALCTDADCFVENGFNVTGKIMCLMHNNMNLPLFPIGKSAATAVNPFPKEWRCLAKNMDDMPILNIPENVELWDKIKAENEKYEGQQLLADLVMNSEEKVTICVTGPLSNVAWCIDKYGEKFTSKVEECVIMGGAVDVRGNVFLPSTDGTAEWNIYWDPASAKTVFGCPGLRRIMFSLDSTNTVPVRSPYVQRFGEQTNFLLSILVGTMWAMCTHCELLRDGDGYYAADALTAAYVVDQKVANVDPVPIDVVVDKQPNEGATVRTDAENYPLTFVARNPEAEFFLDMLLRSARAC”, the “soluble on expression in E. coli” value was “soluble”.
Regarding “GPGSMLAASRLARGVAETVTRENFTISRLTNGLRVITCEDGNGITGMGLFSLNGPKFEEEGSFGAAAVMESLPLRSNTRMTTETISQSLGVFGNAYKVTNNREAMSVMLMMPRYHRKEGLDVLNGMWLHPTDNDEEFAVAKAQTLHRSSLMSRDATSMLFELVHKAGWSGRGLGNPLSPTEQQLEQLTLERFHAFHRRYTTPERTVLAATGVADHKTFVQEAEVRLQFPQATAPSLHSSSAETANKAAAATAQLHPYTGGCEYVQNTMAPESMNKFQEKNLSHIALFFQAIPMAHPDYFTFSVIQTLLGGGTSFSSGGPGKGMQTKLFREVLNREPNVHGMECITAWYSDGGLIGLYGSAPHEHVNNLLKIIIFQAASISQRVTPVHVEMAKNQLSSQLILLGEGREQLLNDMGFNLLVHNYTITPQETIQGSAQVTMARLHEVCAQLIEHPITFAVYGETKGMPEYRELVQALKKSYASLSKSTPA”, the “soluble on expression in E. coli” value was “not soluble”.
For “MVTLTTNTEGATIYYTLDGSNPTNKSVRYNGRIVVNENSVIKAIAEKEGLTSSAISTFSFVIVNNEPVRIHDIQGKSHLSPYNGKKVYNVEGVVTALDKNGFYIEDNQPDNDPATSEGMYVYKKDANVAVGDLIQVDGVVEEYVGPGYAERFDTDLTTTEIKASRVVVIAKDQVLPAPIVLGENGVKIPDQIIDNDAFGLFDPNEDAIDFYESVEGMRVTMPTPKIIAPQKNGNLYVTVKNGGNKVVTKYGTPVLDENQLNPERLSVKVPRDYVAKVGDTFTGDITGVVGYDYGSFRIAPITELPSVVDGGFKQIGANIQPRLDKLEHHHHHH”, the “soluble on expression in E. coli” value is “soluble”.
Regarding “MAHHHHHHMSRNPSNSDAAHAFWSTQPVPQTEDETEKIVFAGPMDEPKTVADIPEEPYPIASTFEWWTPNMEAADDIHAIYELLRDNYVEDDDSMFRFNYSEEFLQWALCPPNYIPDWHVAVRRKADKKLLAFIAGVPVTLRMGTPKYMKVKAQEKGEGEEAAKYDEPRHICEINFLCVHKQLREKRLAPILIKEATRRVNRTNVWQAVYTAGVLLPTPYASGQYFHRSLNPEKLVEIRFSGIPAQYQKFQNPMAMLKRNYQLPSAPKNSGLREMKPSDVPQVRRILMNYLDSFDVGPVFSDAEISHYLLPRDGVVFTYVVENDKKVTDFFSFYRIPSTVIGNSNYNLLNAAYVHYYAATSIPLHQLILDLLIVAHSRGFDVCNMVEILDNRSFVEQLKFGAGDGHLRYYFYNWAYPKIKPSQVALVML”, the “soluble on expression in E. coli” value is “not soluble”.
With “MPSIRLADLAQQLDAELHGDGDIVITGVASMQSAQTGHITFMVNPKYREHLGLCQASAVVMTQDDLPFAKSAALVVKNPYLTYARMAQILDTTPQPAQNIAPSAVIDATAKLGNNVSIGANAVIESGVELGDNVIIGAGCFVGKNSKIGAGSRLWANVTIYHEIQIGQNCLIQSGTVVGADGFGYANDRGNWVKIPQIGRVIIGDRVEIGACTTIDRGALDDTIIGNGVIIDNQCQIAHNVVIGDNTAVAGGVIMAGSLKIGRYCMIGGASVINGHMEICDKVTVTGMGMVMRPITEPGVYSSGIPLQPNKVWRKTAALVMNIDDMSKRLKSLERKVNQQD”, the “soluble on expression in E. coli” value is reported as “soluble”.
